Laboratory results as given in patent publication US20180326084A1 (Genmab, published 2018).
Like-named read-outs stand apart in the source and are kept apart here.

Experiments:
[1] = biological target: T1, AXLECDHis (human, UniProt P30530 26-447); test: BLI (Octet), IgG on anti-human Fc sensor, AXLECDHis analyte
T1 construct: theoretical mass 46 kDa used; also called extracellular domain (ECD) of human AXL (aa 1-447) with a C-terminal His tag; soluble recombinant AXL extracellular domain

[2] = biological target: T2, human AXL (full length) (human, UniProt P30530 26-894); test: flow cytometry, A431 cells, no Gas6
T2 construct: also called TH1021-AXL; TH1021-hAXL

[3] = biological target: T2, human AXL (full length); test: flow cytometry, A431 cells pre-incubated with 10 µg/mL Gas6 (competitor)
[4] = biological target: T2, human AXL (full length); test: flow cytometry, A431 cells, no Gas6; remark: listed apart in the source
[5] = biological target: T3, Homo sapiens AXL-Mus musculus FN1 domain (p33-AXL-mFN1) (human-mouse chimera, UniProt P30530 26-894); test: flow cytometry, 1 µg/mL antibody, transfected HEK293F cells
T3 construct: Expressed in HEK293F cells; also called hsAXL-mmFN1; TH1021-mFN1
T3 chain: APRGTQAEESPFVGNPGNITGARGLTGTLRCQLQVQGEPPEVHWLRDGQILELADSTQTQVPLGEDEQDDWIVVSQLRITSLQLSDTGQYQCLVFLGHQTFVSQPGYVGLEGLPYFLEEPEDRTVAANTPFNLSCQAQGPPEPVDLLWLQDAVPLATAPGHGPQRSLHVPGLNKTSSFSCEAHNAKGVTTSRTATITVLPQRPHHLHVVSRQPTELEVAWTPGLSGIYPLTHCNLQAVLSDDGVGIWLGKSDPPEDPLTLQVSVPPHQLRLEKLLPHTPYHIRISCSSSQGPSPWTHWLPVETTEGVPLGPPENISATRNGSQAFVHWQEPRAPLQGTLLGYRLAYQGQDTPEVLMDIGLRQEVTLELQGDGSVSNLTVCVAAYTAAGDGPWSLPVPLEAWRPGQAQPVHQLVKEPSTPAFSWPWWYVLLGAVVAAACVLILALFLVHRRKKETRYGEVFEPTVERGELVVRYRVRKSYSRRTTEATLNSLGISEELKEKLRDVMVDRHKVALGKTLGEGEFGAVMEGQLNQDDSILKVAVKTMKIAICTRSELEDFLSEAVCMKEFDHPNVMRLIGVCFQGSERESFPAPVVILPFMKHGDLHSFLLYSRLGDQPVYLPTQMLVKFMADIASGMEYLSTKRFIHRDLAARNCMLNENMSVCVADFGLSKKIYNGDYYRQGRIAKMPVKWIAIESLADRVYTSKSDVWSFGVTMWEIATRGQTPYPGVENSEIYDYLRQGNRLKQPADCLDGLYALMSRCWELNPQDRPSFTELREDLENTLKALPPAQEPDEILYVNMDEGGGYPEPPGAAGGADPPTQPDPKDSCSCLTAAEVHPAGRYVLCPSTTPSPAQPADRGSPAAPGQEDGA

[6] = biological target: T4, Homo sapiens AXL-Mus musculus Ig2 domain (p33-AXL-mIg2) (human-mouse chimera, UniProt P30530 26-894); test: as above
T4 construct: Expressed in HEK293F cells; also called hsAXL-mmIg2; TH1021-mIg2
T4 chain: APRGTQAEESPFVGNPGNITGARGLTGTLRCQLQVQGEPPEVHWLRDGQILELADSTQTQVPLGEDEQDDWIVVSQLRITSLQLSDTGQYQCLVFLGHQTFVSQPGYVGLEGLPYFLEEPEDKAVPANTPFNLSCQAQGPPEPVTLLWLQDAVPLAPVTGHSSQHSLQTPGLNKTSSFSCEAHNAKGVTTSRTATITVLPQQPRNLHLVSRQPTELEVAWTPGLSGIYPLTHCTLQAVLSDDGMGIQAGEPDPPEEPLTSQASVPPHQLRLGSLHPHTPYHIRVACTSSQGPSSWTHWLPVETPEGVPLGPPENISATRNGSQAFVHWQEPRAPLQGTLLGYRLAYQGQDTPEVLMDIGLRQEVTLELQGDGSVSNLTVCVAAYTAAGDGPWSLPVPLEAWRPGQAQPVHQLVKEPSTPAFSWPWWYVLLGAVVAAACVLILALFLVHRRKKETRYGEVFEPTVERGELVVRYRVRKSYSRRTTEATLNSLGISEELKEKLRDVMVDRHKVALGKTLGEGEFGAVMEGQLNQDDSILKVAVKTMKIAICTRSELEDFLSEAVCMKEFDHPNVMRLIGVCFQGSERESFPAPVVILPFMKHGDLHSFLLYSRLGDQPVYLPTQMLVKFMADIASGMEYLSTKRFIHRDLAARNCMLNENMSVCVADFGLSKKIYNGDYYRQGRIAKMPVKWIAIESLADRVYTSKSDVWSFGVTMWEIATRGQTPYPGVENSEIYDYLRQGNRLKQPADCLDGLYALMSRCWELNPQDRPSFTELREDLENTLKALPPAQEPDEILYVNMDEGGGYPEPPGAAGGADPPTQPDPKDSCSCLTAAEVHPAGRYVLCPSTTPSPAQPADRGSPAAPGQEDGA

[7] = biological target: T2, human AXL (full length); test: flow cytometry, A431 cells pre-incubated with 10 µg/mL Gas6 (competitor); remark: listed apart in the source
[8] = biological target: T5, Homo sapiens AXL-Mus musculus FN2 domain (p33-AXL-mFN2) (human-mouse chimera, UniProt P30530 26-894); test: flow cytometry, 1 µg/mL antibody, transfected HEK293F cells
T5 construct: Expressed in HEK293F cells; also called hsAXL-mmFN2; TH1021-mFN2
T5 chain: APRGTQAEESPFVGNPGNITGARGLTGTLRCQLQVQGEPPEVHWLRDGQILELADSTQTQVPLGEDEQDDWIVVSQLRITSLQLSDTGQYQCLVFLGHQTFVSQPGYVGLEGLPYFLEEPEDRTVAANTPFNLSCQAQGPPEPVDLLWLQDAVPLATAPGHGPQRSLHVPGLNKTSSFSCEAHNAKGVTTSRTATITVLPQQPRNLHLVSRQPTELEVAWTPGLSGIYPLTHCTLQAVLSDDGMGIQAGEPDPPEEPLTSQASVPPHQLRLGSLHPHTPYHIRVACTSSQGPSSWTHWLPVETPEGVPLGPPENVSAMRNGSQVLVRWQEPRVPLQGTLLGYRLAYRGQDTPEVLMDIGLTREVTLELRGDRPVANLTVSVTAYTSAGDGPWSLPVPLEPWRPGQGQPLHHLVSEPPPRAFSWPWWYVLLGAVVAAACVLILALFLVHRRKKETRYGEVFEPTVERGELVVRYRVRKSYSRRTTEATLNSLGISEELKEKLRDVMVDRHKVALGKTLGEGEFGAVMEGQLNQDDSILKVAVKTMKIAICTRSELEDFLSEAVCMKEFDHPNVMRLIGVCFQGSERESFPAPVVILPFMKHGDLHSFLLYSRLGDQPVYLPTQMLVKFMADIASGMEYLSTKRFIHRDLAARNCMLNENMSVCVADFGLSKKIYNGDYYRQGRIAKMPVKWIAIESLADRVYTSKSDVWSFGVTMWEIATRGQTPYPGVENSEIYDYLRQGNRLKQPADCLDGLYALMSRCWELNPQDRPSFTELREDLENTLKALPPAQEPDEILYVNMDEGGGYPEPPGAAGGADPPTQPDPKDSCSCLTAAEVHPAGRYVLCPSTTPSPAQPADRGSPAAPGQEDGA

[9] = biological target: T1, AXLECDHis; test: BLI (Octet), IgG on anti-human Fc sensor, AXLECDHis analyte; remark: listed apart in the source
[10] = biological target: T6, human AXL with a cynomolgus monkey extracellular domain (ECD) (cynomolgus monkey (Macaca …, UniProt P30530 26-894)); test: flow cytometry, HEK293T cells with human AXL carrying cynomolgus ECD
T6 construct: Chimera on transfected HEK293T cells; also called cynomolgus AXL; cynomolgus AXL-ECD
T6 chain: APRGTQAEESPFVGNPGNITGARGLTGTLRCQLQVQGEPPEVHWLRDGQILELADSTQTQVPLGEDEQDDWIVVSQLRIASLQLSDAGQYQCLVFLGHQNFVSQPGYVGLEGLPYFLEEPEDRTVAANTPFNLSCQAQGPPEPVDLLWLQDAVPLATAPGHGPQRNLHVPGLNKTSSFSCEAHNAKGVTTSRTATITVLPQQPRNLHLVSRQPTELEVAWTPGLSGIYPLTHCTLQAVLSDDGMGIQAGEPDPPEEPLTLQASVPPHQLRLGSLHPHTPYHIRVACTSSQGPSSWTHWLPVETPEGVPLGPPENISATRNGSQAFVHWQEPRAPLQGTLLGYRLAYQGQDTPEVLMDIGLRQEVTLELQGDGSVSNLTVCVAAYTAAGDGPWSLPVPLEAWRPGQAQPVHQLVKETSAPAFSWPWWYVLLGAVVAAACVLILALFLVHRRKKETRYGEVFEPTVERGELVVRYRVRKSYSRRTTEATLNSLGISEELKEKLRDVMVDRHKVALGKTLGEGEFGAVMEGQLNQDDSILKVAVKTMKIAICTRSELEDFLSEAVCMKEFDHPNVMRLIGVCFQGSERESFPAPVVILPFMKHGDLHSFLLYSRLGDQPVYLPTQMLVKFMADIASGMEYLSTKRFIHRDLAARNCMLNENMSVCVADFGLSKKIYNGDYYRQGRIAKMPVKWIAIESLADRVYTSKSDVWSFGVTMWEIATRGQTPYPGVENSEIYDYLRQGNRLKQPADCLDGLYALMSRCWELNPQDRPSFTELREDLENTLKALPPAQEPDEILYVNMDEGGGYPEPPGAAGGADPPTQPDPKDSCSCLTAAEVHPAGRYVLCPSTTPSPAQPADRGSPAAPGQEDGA

[11] = biological target: T2, human AXL (full length); test: flow cytometry, HEK293T cells with full-length human AXL

B1: IgG1-AXL-511 (antibody, V domains shown)
VH: EVQLLESGGGLVQPGGSLRLSCAASGFTFSSYAMNWVRQAPGKGLEWVSGISGSGGHTYHADSVKGRFTISRDNSKNTLYLQMNSLRAEDTAVYYCAKDRYDILTGYYNLLDYWGQGTLVTVSS
VL: DIQMTQSPSSLSASVGDRVTITCRASQGISSWLAWYQQKPEEAPKSLIYAASSLQSGVPSRFSGSGSGTDFTLTISSLQPEDFATYYCQQYNSYPLTFGGGAKVEIK
notes: also called clone 511
Kd [1]: 23 nM | koff [1]: 0.0039 s⁻¹ | kon [1]: 170000 M⁻¹ s⁻¹ | EC50 [2]: 0.12 µg/mL | EC50 [3]: 0.3 µg/mL | maximal binding in presence of Gas6 (% of binding in absence of Gas6) [3]: 93%

B2: IgG1-AXL-061 (antibody, V domains shown)
VH: QVQLVQSGAEVKKPGASVKVSCKASGYAFTGYGISWVRQAPGQGLEWIGWISAYNGNTNYVQNLQDRVTMTTDTSTSTAYMELRSLRSDDTAVYYCARDHISMLRGIIIRNYWGQGTLVTVSS
VL: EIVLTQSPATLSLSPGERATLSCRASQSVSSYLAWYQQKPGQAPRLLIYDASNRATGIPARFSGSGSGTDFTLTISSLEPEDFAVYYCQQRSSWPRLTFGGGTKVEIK
EC50 [4]: 0.15 µg/mL | binding result [5]: binds | binding result [6]: binds | maximal binding in presence of Gas6 (% of binding in absence of Gas6) [7]: 43% | binding result [8]: binds

B3: IgG1-AXL-183-N52Q (antibody, V domains shown)
VH: QVQLQQWGAGLLKPSETLSLTCAVYGGSFSGYYWSWIRQPPGKGLEWIGEIQQSGSTNYNPSLKSRVTISVDTSKNQFSLKLSSVTAADTSVYYCASGNWDHFFDYWGQGTLVTVSS
VL: DIQMTQSPSSVSASVGDRVTITCRASQGISSWLAWYQHKPGKAPKLLIYATSSLQSGVTSRFSGSGSGTDFTLTISSLQPEDFATYYCQQAKSFPWTFGQGTKVEIK
notes: Expressed as human IgG1,κ; also called IgG1-AXL-183-N520
fold change of dissociation rate against wild-type IgG1-AXL-183 [1]: ~2.5 fold | Kd [9]: 24 nM | koff [9]: 0.001 s⁻¹ | kon [9]: 42000 M⁻¹ s⁻¹ | EC50 [10]: 0.324 µg/mL | EC50 [11]: 0.35 µg/mL
